Experimental data reported in patent US20250230234A1 (Sanofi, published 2025).
Values joined by “and” are separate entries in the source; they are usually repeats but may differ in a detail not shown here. Identical values can stand only once.

Assays:
[1] = biological target: T1, human GPRC5D (full length, on cells) (human, UniProt Q9NZD1 1-345); test: cell-based or functional assay
[2] = biological target: T1, human GPRC5D (full length, on cells); test: cell-based or functional assay; remark: listed apart in the source
[3] = biological target: T1, human GPRC5D (full length, on cells); test: cell-based or functional assay; remark: listed apart in the source
[4] = biological target: T1, human GPRC5D (full length, on cells); test: cell-based or functional assay; remark: listed apart in the source
[5] = biological target: T1, human GPRC5D (full length, on cells); test: cell-based or functional assay; remark: listed apart in the source
[6] = biological target: T1, human GPRC5D (full length, on cells); test: flow cytometry on MM.1R cells, apparent KD, mean
Method: (§1) FACS analyses were performed to determine the ability of the ADCC-enhanced antibodies to bind to cells that express GPRC5D on their surface.
(§2) Analyses were performed with Forecyt® Software. Cells were first gated in FSC (forward scatter)/SSC (side scatter). From the resulting cell population, single live cells were gated. Binding was analyzed as median fluorescence intensity (MFI) of the secondary antibody. Curves and apparent KD (“AppKD”) calculations were generated using GraphPad Prism Software (FIG. 2).

[7] = biological target: T1, human GPRC5D (full length, on cells); test: flow cytometry on MM.1R cells, apparent KD, N = 1
Method: as §1, §2

[8] = biological target: T1, human GPRC5D (full length, on cells); test: flow cytometry on MM.1R cells, apparent KD, N = 2
Method: as §1, §2

[9] = biological target: T1, human GPRC5D (full length, on cells); test: flow cytometry on MM.1R cells, apparent KD, N = 3
Method: as §1, §2

[10] = biological target: T2, huFcγRIIa_R167 (human, UniProt P12318 36-218, limits assumed); test: SPR Biacore T200, receptor captured by anti-His, single cycle kinetics
T2 construct: also called huFcγRIIA R167 polymorph
T2 sequence (looked up): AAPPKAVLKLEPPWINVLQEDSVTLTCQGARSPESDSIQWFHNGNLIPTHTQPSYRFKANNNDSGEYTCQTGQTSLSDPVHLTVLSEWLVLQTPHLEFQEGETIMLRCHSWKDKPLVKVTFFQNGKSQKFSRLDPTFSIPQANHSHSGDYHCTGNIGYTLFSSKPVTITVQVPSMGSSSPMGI

[11] = biological target: T3, huFcRn (human, UniProt P55899 24-297; P61769 21-119); test: SPR Biacore T200, huFcRn on biotin CAPture, pH 5.9, mean of two; pH 5.9
T3 construct: also called human FcRn
Method: (§3) The interaction of the antibodies with human Fc receptors was analysed by SPR using a Biacore™ T200 instrument in the following test conditions: [0242] Immobilization of anti-His antibodies on a CM5 sensor chip via amine coupling for seven Fcγ receptors: huFcγRI, huFcγRIIa_H131, huFcγRIIa_R131, huFcγRIIb/c, huFcγRIIIa_V158, huFcγRIIIa_F158, huFcγRIIIb, or use of biotin CAPture for the huFcRn analysis [0243] Capture of each of the Fc receptors [0244] Affinity constant determination by single cycle kinetics (SCK) at concentrations ranging from 0.6 nM to 2000 nM [0245] Interaction with huFcRn was studied at pH5.9 and pH7.4

[12] = biological target: T4, cynomolgus FcγRIIIa expressed on HEK293 T cells (cynomolgus, UniProt Q8SPW2 17-254); test: flow cytometry on HEK293 T cells expressing cyno FcγRIIIa, against BM2 IgG1 wt
T4 construct: whole, on cells; also called cyno FcγRIIIa; cy FcγRIIIa
T4 sequence (Q8SPW2 17-254): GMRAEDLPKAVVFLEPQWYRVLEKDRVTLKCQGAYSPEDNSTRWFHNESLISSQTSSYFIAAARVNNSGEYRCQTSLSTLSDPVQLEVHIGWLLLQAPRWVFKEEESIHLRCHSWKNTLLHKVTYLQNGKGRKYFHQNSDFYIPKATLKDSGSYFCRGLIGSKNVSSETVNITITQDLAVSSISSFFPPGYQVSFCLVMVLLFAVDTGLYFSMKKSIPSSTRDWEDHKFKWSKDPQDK
Method: (§4) The antibodies were tested using FACS for their ability to bind cells that express human or cynomolgus FcγRIIIa on their surface. The cell lines used were recombinant stable HEK293 T cells expressing human FcγRIIIa V158 and cynomolgus FcγRIIIa to assess cynomolgus cross-reactivity.
(§5) For dose-response curves, cells were incubated with a serial dilution of the antibodies (from 0.0001 μg/mL to 100 μg/mL) for 1 h at 4° C.
(§6) Analyses were performed with VenturiOne® Software. Cells were first gated in FSC/SSC. From the resulting cell population, single cells and following viable cells were gated. Binding was analyzed as median fluorescence intensity (MFI) of the secondary antibody.

[13] = biological target: T5, huFcγRIIIa_F158 (human, UniProt P08637 17-208); test: SPR Biacore T200, receptor captured by anti-His, single cycle kinetics, mean of two
T5 construct: Recombinant receptor captured on the SPR chip through anti-His antibodies; also called human FcγRIIIa F158 polymorph; CD16a
T5 sequence (P08637 17-208 limits assumed): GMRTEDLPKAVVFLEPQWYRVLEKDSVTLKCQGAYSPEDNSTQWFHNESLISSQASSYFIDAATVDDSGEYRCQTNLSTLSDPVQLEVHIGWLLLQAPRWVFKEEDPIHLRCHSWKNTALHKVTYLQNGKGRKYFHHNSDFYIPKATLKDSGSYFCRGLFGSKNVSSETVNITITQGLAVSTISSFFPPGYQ
Method: as §3

[14] = biological target: T6, huFcγRIIIa_V158 (human, UniProt P08637 17-208); test: as above
T6 construct: Recombinant receptor captured on the SPR chip through anti-His antibodies; V at position 158 (mature numbering, as the name says); also called human FcγRIIIa V158 polymorph; CD16a
T6 sequence (P08637 17-208 F176V limits assumed): as the sequence (P08637 17-208 limits assumed) above, with F160V counted along it
Method: as §3

[15] = biological target: T7, huFcγRIIa_H167 (human, UniProt P12318 36-218, limits assumed); test: as above
T7 construct: also called huFcγRIIA H167 polymorph
T7 sequence (looked up): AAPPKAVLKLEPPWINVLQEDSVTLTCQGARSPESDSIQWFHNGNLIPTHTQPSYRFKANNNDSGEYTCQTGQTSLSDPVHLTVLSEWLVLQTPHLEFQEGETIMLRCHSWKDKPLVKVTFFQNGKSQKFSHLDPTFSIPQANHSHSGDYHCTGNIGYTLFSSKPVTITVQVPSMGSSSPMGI
Method: as §3

[16] = biological target: T2, huFcγRIIa_R167; test: as above
Method: as §3

[17] = biological target: T8, huFcγRI (human, UniProt P12314 16-288); test: as above
T8 construct: also called human FcγRI
T8 sequence (P12314 16-288 limits assumed): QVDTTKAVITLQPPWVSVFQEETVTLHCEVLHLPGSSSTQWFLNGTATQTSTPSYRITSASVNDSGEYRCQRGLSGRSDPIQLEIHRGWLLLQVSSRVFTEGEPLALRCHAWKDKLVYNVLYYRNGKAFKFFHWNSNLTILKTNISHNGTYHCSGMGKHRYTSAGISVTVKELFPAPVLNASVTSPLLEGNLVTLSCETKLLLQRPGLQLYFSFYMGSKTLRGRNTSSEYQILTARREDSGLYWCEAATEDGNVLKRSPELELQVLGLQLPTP
Method: as §3

[18] = biological target: T9, huFcγRIIIb (human, UniProt O75015 17-200); test: as above
T9 construct: also called human FcγRIIIb
T9 sequence (O75015 17-200 limits assumed): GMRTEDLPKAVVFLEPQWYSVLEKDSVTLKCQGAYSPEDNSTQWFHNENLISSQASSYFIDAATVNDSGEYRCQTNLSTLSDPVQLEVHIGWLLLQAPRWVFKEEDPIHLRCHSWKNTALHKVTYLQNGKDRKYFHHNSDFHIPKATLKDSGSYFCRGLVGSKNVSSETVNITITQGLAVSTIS
Method: as §3

[19] = biological target: T10, human FcγRIIIa V158 expressed on HEK293 T cells (human, UniProt P08637 17-254); test: flow cytometry on HEK293 T cells expressing human FcγRIIIa V158, against BM2 IgG1 wt
T10 construct: whole, on cells; Cell-surface form, kept apart from the soluble His-captured receptor m11; also called HEK293 T human FcγRIIIa V158; hu FcγRIIIa
T10 sequence (P08637 17-254 F176V): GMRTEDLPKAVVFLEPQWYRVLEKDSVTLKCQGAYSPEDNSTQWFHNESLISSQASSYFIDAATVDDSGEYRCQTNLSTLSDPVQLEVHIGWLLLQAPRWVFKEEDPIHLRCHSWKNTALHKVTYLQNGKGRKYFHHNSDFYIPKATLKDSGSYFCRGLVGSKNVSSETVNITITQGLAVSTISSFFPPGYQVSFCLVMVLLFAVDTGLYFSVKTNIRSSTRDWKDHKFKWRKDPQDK
Method: as §4, §5, §6

[20] = biological target: T4, cynomolgus FcγRIIIa expressed on HEK293 …; test: flow cytometry on HEK293 T cells expressing cyno FcγRIIIa, apparent KD, mean of three
Method: as §4, §5
(§7) The apparent KD was determined for each molecule by drawing an appropriate non-linear regression curve using the one site-specific binding four parameters model with GraphPad Prism Software (FIG. 1).

[21] = biological target: T10, human FcγRIIIa V158 expressed on HEK293 …; test: flow cytometry on HEK293 T cells expressing human FcγRIIIa V158, apparent KD, mean of three
Method: as §4, §5, §7

[22] = biological target: T3, huFcRn; test: SPR Biacore T200, huFcRn on biotin CAPture, pH 5.9, mean of two; pH 5.9; fold change vs BM1 IgG1 wt
[23] = biological target: T1, human GPRC5D (full length, on cells); test: FACS on MM.1R cells (GPRC5D-positive), serial antibody dilution, goat anti-human IgG A488 secondary antibody, median fluorescence intensity
Method: as §1, §2

T1 sequence (Q9NZD1 whole entry): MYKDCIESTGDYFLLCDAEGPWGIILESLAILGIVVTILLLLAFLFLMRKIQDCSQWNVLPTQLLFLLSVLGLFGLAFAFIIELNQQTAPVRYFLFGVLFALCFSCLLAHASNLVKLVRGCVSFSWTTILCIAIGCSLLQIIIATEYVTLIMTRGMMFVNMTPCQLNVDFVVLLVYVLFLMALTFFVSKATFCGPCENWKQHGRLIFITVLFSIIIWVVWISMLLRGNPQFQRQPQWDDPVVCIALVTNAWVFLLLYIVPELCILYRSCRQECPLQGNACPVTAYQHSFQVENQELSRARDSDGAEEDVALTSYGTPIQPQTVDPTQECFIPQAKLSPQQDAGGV

EC50rel geometric mean, ADCP by macrophages against MM.1R cells (n = 5) [1]: 0.0359 µg/mL
relEC50 Median, ADCC (calcein release) against MM.1R cells with NK cells [2]: 6 ng/ml and 40.1 pM
relEC50 Median, ADCC (calcein release) against EJM cells with NK cells [3]: 259 pM and 37.5 ng/ml
relEC50 median, ADCC over four days (Incucyte) against MM.1R cells with NK cells [4]: 0.87 ng/ml and 6 pM
EC50 geometric mean, ADCP by macrophages against MM.1R cells (n = 5) [5]: 0.248 nM
EC50rel, ADCP by macrophages against MM.1R cells, Donor1 [5]: 0.297 nM
EC50rel, ADCP by macrophages against MM.1R cells, Donor3 [5]: 0.303 nM
EC50rel, ADCP by macrophages against MM.1R cells, Donor4 [5]: 0.517 nM
EC50rel, ADCP by macrophages against MM.1R cells, Donor5 [5]: 0.0528 nM
Kd [6]: 0.024 nM
Kd [7]: 0.036 nM
Kd [8]: 0.018 nM
Kd [9]: 0.019 nM
binding result [10]: no binding (tested: 0.6 nM to 2000 nM)
Kd [11]: 982 nM
Fold change vs IgG1 wt [12]: 26 fold
Fold change vs BM1 IgG1 wt [13]: 10 fold
Kd [13]: 22.7 nM
NormB [13]: 45
Fold change vs BM1 IgG1 wt [14]: 4 fold
Kd [14]: 12.2 nM
NormB [14]: 38
Fold change vs BM1 IgG1 wt [15]: 1 fold
Kd [15]: 2580 nM
NormB [15]: 15
NormB [16]: 2
Fold change vs BM1 IgG1 wt [17]: 2 fold
Kd [17]: 0.499 nM
Fold change vs BM1 IgG1 wt [18]: 34 fold
Kd [18]: 52.9 nM
Fold change vs IgG1 wt [19]: 28 fold
Kd [20]: 1.4 nM
Kd [21]: 1.22 nM
Fold change vs BM1 IgG1 wt [22]: 1 fold
EC50 (read off the curve) [23]: ~0.02 nM
B1: clone 11 in DE-DSB format (anti-GPRC5D IgG1 with S239D/I332E/R292C/V302C Fc mutations) (antibody)
heavy: EVQLVESGGGLVQPGGSLRLSCAASGFTVSSNYMSWVRQAPGKGLEWVSVIYSGGSTYYADSVKGRFTISRDNSKNTLYLQMNSLRAEDTAVYYCARGFLAFGRYYYGMDVWGQGTTVTVSSASTKGPSVFPLAPSSKSTSGGTAALGCLVKDYFPEPVTVSWNSGALTSGVHTFPAVLQSSGLYSLSSVVTVPSSSLGTQTYICNVNHKPSNTKVDKKVEPKSCDKTHTCPPCPAPELLGGPDVFLFPPKPKDTLMISRTPEVTCVVVDVSHEDPEVKFNWYVDGVEVHNAKTKPCEEQYNSTYRCVSVLTVLHQDWLNGKEYKCKVSNKALPAPEEKTISKAKGQPREPQVYTLPPSRDELTKNQVSLTCLVKGFYPSDIAVEWESNGQPENNYKTTPPVLDSDGSFFLYSKLTVDKSRWQQGNVFSCSVMHEALHNHYTQKSLSLSPG
light: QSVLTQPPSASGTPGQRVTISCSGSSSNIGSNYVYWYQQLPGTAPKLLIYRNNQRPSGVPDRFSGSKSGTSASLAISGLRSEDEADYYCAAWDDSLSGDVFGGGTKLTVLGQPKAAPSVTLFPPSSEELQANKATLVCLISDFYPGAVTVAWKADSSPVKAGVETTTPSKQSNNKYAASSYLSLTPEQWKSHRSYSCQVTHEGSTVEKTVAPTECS
notes: human IgG1, lambda light chain; also called 11-DE-DSB; 11 DE-DSB
